Data as given in patent publication US20150210761A1 (SAMSUNG ELECTRONICS, published 2015).
Substitutions are numbered along the chain they refer to.

Columns and labels:
Test in all cases: ELISA; antibody coated, FLAG-tagged RBD mutant, anti-FLAG-HRP detection
[1] = biological target: T1, Ang2 RBD mutant S417 (human, UniProt O15123 276-496)
T1 chain: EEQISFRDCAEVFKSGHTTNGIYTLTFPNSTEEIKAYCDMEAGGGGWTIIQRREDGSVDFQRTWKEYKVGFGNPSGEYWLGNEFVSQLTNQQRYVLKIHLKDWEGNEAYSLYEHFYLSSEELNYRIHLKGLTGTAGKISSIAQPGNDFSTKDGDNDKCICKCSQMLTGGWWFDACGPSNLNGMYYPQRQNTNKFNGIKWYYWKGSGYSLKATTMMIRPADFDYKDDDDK

[2] = biological target: T2, Ang2 RBD mutant N421 (human, UniProt O15123 276-496)
T2 chain: T1 chain with A142S, N146A

[3] = biological target: T3, Ang2 RBD mutant I434 (human, UniProt O15123 276-496)
T3 chain: T1 chain with A142S, I159A

[4] = biological target: T4, Ang2 RBD mutant Y460 (human, UniProt O15123 276-496)
T4 chain: T1 chain with A142S, Y185A

[5] = biological target: T5, Ang2 RBD mutant N467 (human, UniProt O15123 276-496)
T5 chain: T1 chain with A142S, N192A

[6] = biological target: T6, Ang2 RBD mutant F469 (human, UniProt O15123 276-496)
T6 chain: T1 chain with A142S, F194A

B1: SAIT-ANG2-AB-m1A10 (antibody, V domains shown)
VH: QVQLQQSGAELMKPGASVKISCKATDYTFSSYWLEWLIQRPGHGLEWIGEILPGSGSTNYNEKFRGKATFTEDTSSNTAYMQLSSLTSEDSAVYYCARGNHNSYYYAMDYWGQGTSVTVSS
VL: DIVLTQSPASLAVSLGQRATISCRASESVDSYGNSFMHWYQQKPGQPPKLLIYRASNLDSGIPARFSGSGSRTDFTLTINPVEADDVATYYCQQSNEDPLTFGAGTKLELK
notes: also called hybridoma KCLRF-BP-00306
Question: How did the “Binding (%) (mutant Ang2 / native Ang2)” value [1] turn out when B1 was run?
Answer: 100%

Question: What about the “Binding (%) (mutant Ang2 / native Ang2)” value [2] of the same binder?
Answer: 89.3%

Question: And the “Binding (%) (mutant Ang2 / native Ang2)” value [3]?
Answer: 93.2%

Question: What about the “Binding (%) (mutant Ang2 / native Ang2)” value [4] of the same binder?
Answer: 8.3%

Question: And the “Binding (%) (mutant Ang2 / native Ang2)” value [5]?
Answer: 79.4%

Question: And the “Binding (%) (mutant Ang2 / native Ang2)” value [6]?
Answer: 77.9%
